Reference: patent publication US20160122417A1

Target: wild-type human EGFR from A431 cells (human) (UniProt P00533)
Assay: scFv-linked agarose beads incubated with A431 cell lysate; captured EGFR detected with anti-EGFR antibody cocktail, bead fluorescence normalized to the U87-EGFRvIII lysate signal

percent reduction in A431 lysate EGFR binding signal relative to U87-EGFRvIII lysate signal: 85%
Substance: MR1 scFv, azide-functionalized and immobilized on DBCO-functionalized agarose beads
